Results on two substances are retold here after PMC4682080.

One test deals with GAPDH (UniProt P04406). Particulars: cited from earlier work.
The target of test [1] is Glyceraldehyde-3-phosphate dehydrogenase (rabbit muscle GAPDH) (rabbit) (UniProt P46406).
Sequence of UniProt P46406 (P46406 whole entry): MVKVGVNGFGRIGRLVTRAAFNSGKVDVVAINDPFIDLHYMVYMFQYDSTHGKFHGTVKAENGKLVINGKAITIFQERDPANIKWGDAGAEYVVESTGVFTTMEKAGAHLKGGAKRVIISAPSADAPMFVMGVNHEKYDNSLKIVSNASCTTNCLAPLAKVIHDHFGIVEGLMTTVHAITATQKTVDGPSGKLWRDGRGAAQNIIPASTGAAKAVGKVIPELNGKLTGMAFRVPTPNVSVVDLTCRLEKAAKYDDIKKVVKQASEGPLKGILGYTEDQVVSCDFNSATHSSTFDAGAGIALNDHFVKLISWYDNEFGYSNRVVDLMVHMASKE

Sequence of UniProt P04406 (P04406 2-335): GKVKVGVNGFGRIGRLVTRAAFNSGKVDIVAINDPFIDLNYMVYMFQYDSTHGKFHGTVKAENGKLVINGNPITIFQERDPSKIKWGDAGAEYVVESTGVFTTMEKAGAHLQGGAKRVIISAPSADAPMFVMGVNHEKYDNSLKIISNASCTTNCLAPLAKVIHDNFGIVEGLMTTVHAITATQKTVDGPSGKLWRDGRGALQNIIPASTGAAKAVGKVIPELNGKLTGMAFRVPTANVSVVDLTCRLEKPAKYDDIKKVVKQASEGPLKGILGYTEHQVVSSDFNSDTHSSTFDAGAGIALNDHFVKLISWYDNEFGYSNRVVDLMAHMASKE
Sequence of Lactoferrin (P02788 20-710): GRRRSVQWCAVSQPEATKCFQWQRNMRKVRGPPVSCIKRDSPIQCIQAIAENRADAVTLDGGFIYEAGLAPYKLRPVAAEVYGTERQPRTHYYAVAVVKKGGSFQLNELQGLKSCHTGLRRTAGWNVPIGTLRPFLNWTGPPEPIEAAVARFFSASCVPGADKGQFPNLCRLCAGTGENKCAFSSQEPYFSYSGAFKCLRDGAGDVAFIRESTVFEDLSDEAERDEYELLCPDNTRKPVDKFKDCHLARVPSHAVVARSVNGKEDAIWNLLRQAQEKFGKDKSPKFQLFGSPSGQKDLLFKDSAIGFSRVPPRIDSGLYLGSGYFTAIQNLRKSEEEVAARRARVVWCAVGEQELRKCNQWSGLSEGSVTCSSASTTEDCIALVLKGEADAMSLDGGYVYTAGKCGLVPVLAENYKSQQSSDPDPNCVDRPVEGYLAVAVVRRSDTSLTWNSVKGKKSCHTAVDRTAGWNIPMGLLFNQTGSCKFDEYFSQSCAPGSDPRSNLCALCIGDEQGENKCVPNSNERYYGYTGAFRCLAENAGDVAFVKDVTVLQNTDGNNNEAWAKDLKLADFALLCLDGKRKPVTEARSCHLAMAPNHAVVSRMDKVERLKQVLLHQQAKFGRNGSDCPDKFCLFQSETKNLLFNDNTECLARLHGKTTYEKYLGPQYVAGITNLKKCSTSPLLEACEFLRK

Take Lactoferrin (from UniProt P02788): the Kd in the test with GAPDH was 43.8 nM.
As for human lactoferrin (natural protein), in test [1], the Fold change in Lactoferrin MFI of cells internalizing both GAPDH and Lf vs. only lactoferrin +ve cells; CHO was 4.95 fold; the Fold change in Lactoferrin MFI of cells internalizing both GAPDH and Lf vs. only lactoferrin +ve cells; CHO-TRVb stood at 2.83 fold; the Fold change in Lactoferrin MFI of cells internalizing both GAPDH and Lf vs. only lactoferrin +ve cells; Human Lymphocytes came out at 1.27 fold; the Fold change in Lactoferrin MFI of cells internalizing both GAPDH and Lf vs. only lactoferrin +ve cells; J774 amounted to 2.62 fold. In test [1], this substance came in with a Fold change in Lactoferrin MFI of cells internalizing both GAPDH and Lf vs. only lactoferrin +ve cells; K562 of 1.6 fold; a Fold change in Lactoferrin MFI of cells internalizing both GAPDH and Lf vs. only lactoferrin +ve cells; Mouse Bone Marrow cells of 3.7 fold; a Fold change in Lactoferrin MFI of cells internalizing both GAPDH and Lf vs. only lactoferrin +ve cells; Mouse Enterocytes of 5.52 fold; a Fold change in Lactoferrin MFI of cells internalizing both GAPDH and Lf vs. only lactoferrin +ve cells; Mouse Hepatocytes of 4.28 fold. In test [1], the Fold change in Lactoferrin MFI of cells internalizing both GAPDH and Lf vs. only lactoferrin +ve cells; Mouse Peritoneal Macrophages (Ex vivo) stood at 1.17 fold; the Fold change in Lactoferrin MFI of cells internalizing both GAPDH and Lf vs. only lactoferrin +ve cells; Mouse Spleen Macrophages worked out at 2.1 fold; the Fold change in Lactoferrin MFI of cells internalizing both GAPDH and Lf vs. only lactoferrin +ve cells; Mouse peritoneum cells (In-Vivo) was determined as 6.1 fold; the Fold change in Lactoferrin MFI of cells internalizing both GAPDH and Lf vs. only lactoferrin +ve cells; Neuro-2A (N2A) was 4.02 fold. In test [1], this substance gave a Fold change in Lactoferrin MFI of cells internalizing both GAPDH and Lf vs. only lactoferrin +ve cells; PMA activated THP1 of 2.07 fold.

As usually defined, the Kd is the free concentration of one partner at which half of the binding sites on the other are occupied at equilibrium, for simple one-to-one binding.
